Where a chain is given by its changes, count along the chain named. Values belong to the binder of their own block, whether it stands above or below them.
What was measured:
[1] = molecular target: T1, rhB7-H2-Fc (fusion protein of the extracellular part of human B7-H2 (ICOSL) and mouse Fc gamma 1, R&D Systems … (human; mouse, UniProt O75144 19-256; P01868 98-324 = IgG part, limits assumed); assay: competition ELISA, coated B7-H2; blocked ligand ICOS-biotin
T1 construct: extracellular domain;domain: Fc; bought; also called B7-H2 ectodomain

[2] = molecular target: T2, rhB7H1-Fc (fusion protein of the extracellular part of human B7-H1 (PD-L1) and mouse Fc gamma 1, R&D Systems … (human; mouse, UniProt Q9NZQ7 19-238; P01868 98-324 = IgG part, limits assumed); assay: competition ELISA, coated B7-H1; blocked ligand PD-1-biotin
T2 construct: extracellular domain;domain: Fc; bought; also called B7-H1 ectodomain
Description: Next, 0.5 μg/ml of PD-1 was preincubated with a dilution series of purified Nanobody.

[3] = molecular target: T3, rhPD1-Fc (fusion protein of the extracellular part of human PD-1 and mouse Fc gamma 1, R&D Systems Cat … (human; mouse, UniProt Q15116 25-170; P01868 98-324 = IgG part, limits assumed); assay: competition ELISA, coated PD-1; blocked ligand B7-H1-biotin
T3 construct: extracellular domain;domain: Fc; bought; also called PD-1 ectodomain
Description: (§1) In short, 2 μg/ml PD-1 ectodomain (R&D Systems Cat #1086-PD, Minneapolis, US) was immobilized on maxisorp microtiter plates (Nunc, Wiesbaden, Germany) and free binding sites were blocked using 4% Marvel in PBS.

[4] = molecular target: T3, rhPD1-Fc (fusion protein of the …); assay: competition ELISA, coated PD-1; blocked ligand PD-L2-biotin
Description: as §1

[5] = molecular target: T4, HuCD28-HuIgG1 (fusion protein of the extracellular part of human CD28 and human Fc gamma 1, R&D Systems Cat … (human, UniProt P10747 19-152; P01857 100-330 = IgG part); assay: competition ELISA, CD28-hFc in solution; blocked ligand coated B7-1-muFc
T4 construct: extracellular domain;domain: Fc; bought; also called CD28-Ig; hCD28-Fc

[6] = molecular target: T5, rhPDL2-Fc (fusion protein of the extracellular part of human PD-L2 and mouse Fc gamma 1, R&D Systems Cat … (human; mouse, UniProt Q9BQ51 20-220; P01868 98-324 = IgG part, limits assumed); assay: competition ELISA, coated PD-L2; blocked ligand PD-1-biotin
T5 construct: extracellular domain;domain: Fc; bought; also called PD-L2 ectodomain
Description: In short, 2 μg/ml PD-L2 ectodomain (R&D Systems, Minneapolis, US, Cat #1224-PL) was immobilized on maxisorp microtiter plates (Nunc, Wiesbaden, Germany) and free binding sites were blocked using 4% Marvel in PBS. Next, 0.5 μg/ml of PD-1 was preincubated with a dilution series of purified Nanobody.

[7] = molecular target: T6, HuCTLA4-HuIgG1 (fusion protein of the extracellular part of human CD152 and human Fc gamma 1, CTLA4-Ig) (human, UniProt P16410 36-161); assay: SPR, Biacore T100, CTLA4-Ig amine-coupled
T6 construct: extracellular domain; also called CTLA4-hFc; CTLA4-Fc; not shown: human Fc gamma 1
Description: Affinity constants (Kd) of individual purified Nanobody clones were determined by surface plasmon resonance on a Biacore T100 instrument. […] Remaining reactive groups were inactivated using ethanolamine. […] Each sample was injected for 2 min at a flow rate of 45 μl/min to allow for binding to chip-bound antigen. Next, binding buffer without Nanobody was sent over the chip at the same flow rate to allow for dissociation of bound Nanobody. After 2 min, remaining bound analyte was removed by injecting regeneration solution (10 mM Glycine/HCl pH 1.5). Binding curves obtained at different concentrations of Nanobody were used to calculate KD values. For some clones, only a single undetermined concentrations of Nanobody was injected.

[8] = molecular target: T7, cynomolgus monkey CTLA4 on stably transfected CHO-K1 cells (human CTLA4 cDNA with S13N, I17T and L105M) (human backbone with cynomolgus monkey …, UniProt P16410 36-223); assay: FACS, direct binding titration on cyno CTLA4 CHO cells (head prints IC50)
T7 chain: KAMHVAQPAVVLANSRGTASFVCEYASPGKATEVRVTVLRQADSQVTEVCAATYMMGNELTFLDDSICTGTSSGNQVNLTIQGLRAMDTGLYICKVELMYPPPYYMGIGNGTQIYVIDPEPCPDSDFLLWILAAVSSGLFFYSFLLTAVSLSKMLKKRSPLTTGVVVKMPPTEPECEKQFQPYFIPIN

[9] = molecular target: T8, human CTLA4 (Y201 mutated to valine) on stably transfected CHO-K1 cells (human, UniProt P16410 36-223); assay: FACS, direct binding titration on human CTLA4 CHO cells (head prints IC50)
T8 construct: whole, on cells; the mutation of the intracellular position Y201 keeps the protein on the membrane; also called human CTLA4 overexpressing CHO cells; human CTLA4 transfectant
Description: Binding of putative CTLA4 reactive Nanobodies clones was detected using unlabeled anti-c-myc tag mouse monoclonal antibody 9E10, followed by a phycoerythrin conjugated F(ab′)2 derived from goat-anti-mouse IgG (human and bovine crossabsorbed), and read on a BD FACSarray instrument. Dead cells were excluded from the analysis by gating out TOPRO3 vital dye positive scoring cells. Binding of the Nanobodies to cells was evaluated in BD FACSarray control software as PE channel histograms.

[10] = molecular target: T8, human CTLA4 (Y201 mutated to valine) on …; assay: FACS competition, human CTLA4 CHO cells; blocked ligand CD80-Fc
From the text: The potency of selected Nanobodies to inhibit the interaction of CTLA4 with CD80 was also ranked using FACS based screening method. […] This concentration was previously determined to be the minimal amount required to saturate all CD80 binding sites on both human and cyno CTLA4 expressing CHO cell clones in the absence of any CTLA4 interaction blocking proteins. […] Dead cells were stained by including TOPRO3 vital dye in the final resuspension buffer. All samples were read on a BD FACSarray instrument. Dead cells were excluded from the analysis by gating out TOPRO3 vital dye positive scoring cells.

[11] = molecular target: T2, rhB7H1-Fc (fusion protein of the …); assay: ELISA, coated B7-H1
[12] = molecular target: T9, human CD28 on Jurkat cells (human, UniProt P10747 19-220); assay: FACS competition, Jurkat cells; blocked ligand CD80-Fc
T9 construct: whole, on cells; also called native form of the CD28 antigen; cell expressed CD28
From the text: The potency of cell-expressed CD28 binding Nanobodies to inhibit the interaction of CD28 with either CD80 or CD86 was also ranked using FACS based screening method. […] Dead cells were stained by including TOPRO3 vital dye in the final resuspension buffer. All samples were read on a BD FACSarray instrument. Dead cells were excluded from the analysis by gating out TOPRO3 vital dye positive scoring cells.

IC50 (read off the curve) [1]: ~10 nM
B1: 95H8 (VHH)
VHH: EVQLVESGGGLVQTGGSLRLSCAASSSTSTSSIDVMGWYRQSPGKQRELVASISSFGSTYYADSVKGRFIISRDNAKNTVNLQMNNLKLEDTAVHFCNLRRLSPPPLLDYWGQGTQVTVSS
notes: Nanobody against B7-H2 (ICOSL)

IC50 (read off the curve) [2]: ~20 nM
B2: 104B10 (VHH)
VHH: EVQLVESGGGLVQAGGSLRLSCAASGSTFSQYDVGWYRQAPGKQRELVAFSSSGGRTIYPDSVKGRFTFSRDNTKNTVYLQMTSLKPEDTAVYYCKIDWYLNSYWGQGTQVTVSS

IC50 (read off the curve) [1]: ~10 nM
B3: 95A6 (VHH)
VHH: EVQLVESGGGLVQAGGSLRLSCALSGRAVSIAATAMGWYRQAPGKQRELVAARWSGGSIQYLDSVKGRFTISRDNAKNTVYLQMNSLTPEDTAVYYCNTLPWRANYSGQGTQVTVSS
notes: as for B1

IC50 (read off the curve) [1]: ~10 nM
B4: 95B11 (VHH)
VHH: EVQLVESGGGLVQPGGSLRLSCAASRSISSFNLLGWYRQAPGKQRELVAHLLSGGSTVYPDSVKGRFTVSRDNTKNTVYLQMNSLKPEDTAVYYCNAIAPALGSSWGQGTQVTVSS
notes: as for B1

IC50 (read off the curve) [3]: ~10 nM
IC50 (read off the curve) [4]: ~10 nM
B5: 102C3 (VHH)
VHH: EVQLVESGGGLVQAGKSLRLSCAASGSIFSIHAMGWFRQAPGKEREFVAAITWSGGITYYEDSVKGRFTISRDNAKNTVYLQMNSLKPEDTAIYYCAADRAESSWYDYWGQGTQVTVSS
notes: Nanobody against PD-1

IC50 (read off the curve) [3]: ~80 nM
IC50 (read off the curve) [4]: ~70 nM
B6: 102C12 (VHH)
VHH: B5 VHH with K16G, F29A, A50V, E61A, A98G, R100K, A101H, E102Q
notes: Nanobody against PD-1

IC50 (read off the curve) [3]: ~200 nM
IC50 (read off the curve) [4]: ~200 nM
B7: 102E8 (VHH)
VHH: B5 VHH with K16G, R19G, H32N, G35A, A50L, T52S, I57S, A101V, E102D, S104N
notes: Nanobody against PD-1

IC50 (read off the curve) [3]: ~70 nM
IC50 (read off the curve) [4]: ~70 nM
B8: 102E2 (VHH)
VHH: B5 VHH with K16G, F29S, E61A, V64L, V79G, E102Q
notes: Nanobody against PD-1

IC50 (read off the curve) [5]: ~200 nM
B9: 70F10 (VHH)
VHH: EVQLVESGGGLVQAGGSLRLSCAASGFTFDDYAIGWFRQAPGKEREGVACVSNSDGSTYYANSVKGRFTISSDNAKNTVYLQMNSLKPEDTAVYYCAADSRCWGWGMLHMRHGDRGQGTQVTVSS
notes: Nanobody against CD28

IC50 (read off the curve) [6]: ~10 nM
B10: 103E2 (VHH)
VHH: EVQLVESGGGLVQAGGSLRLSCAASGSTFSNYVSNYAMGWGRQAPGTQRELVASISNGDTTNYADSVKGRFTISRDNAKNTVYLQMNSLKPEDTAVYYCFEHQVAGLTWGQGTQVTVSS
notes: Nanobody against PD-L2

IC50 (read off the curve) [5]: ~100 nM
B11: 70F9 (VHH)
VHH: EVQLVESGGGLVQAGGSLRLSCAASGRTFSSYVMGWFRQAPGKEREFVAAHSWYADYADSVKGRFSISRDNDKNTVYLQMNSLKPEDTAVYYCAASRSQGRRYANSYESWGQGTQVTVSS
notes: Nanobody against CD28

IC50 (read off the curve) [1]: ~8 nM
B12: 95F8 (VHH)
VHH: EVQLVESGGGLVQAGGSLRLSCAASGIAFSIDIMDWYRQAPGKERELVATISGGGSTNYADSVKGRFIVSRDNAKNILYLQMNSLKPDDTAVYYCNARRLIYGRTVYWGQGTQVTVSS
notes: as for B1

Kd [7]: 0.638 nM
koff [7]: 0.00391 s⁻¹
kon [7]: 6.13e+06 M⁻¹ s⁻¹
IC50 [8]: 2.42 nM
IC50 [9]: 2.56 nM
IC50 (read off the curve) [10]: ~10 nM
B13: 4CTLAPMP02F2 (VHH)
VHH: EVQLMESGGGLVQTGGSLRLSCAASGRTFSNYTMGWFRQAPGKDREFVAAISRSGSLKAYADSVKGRFTPSRDNAKKMAYLQMNSLKPEDTAVYYCAAAPVPWGTRPSLFPYDSWGQGTQVTVSS
notes: short label tied to the entry by the clone code only; not shown: C-terminal c-myc tag and His6 tag

Kd [7]: 0.478 nM
koff [7]: 0.00355 s⁻¹
kon [7]: 7.42e+06 M⁻¹ s⁻¹
IC50 [8]: 2.08 nM
IC50 [9]: 2.28 nM
IC50 (read off the curve) [10]: ~8 nM
B14: 4CTLAPMP02G2 (VHH)
VHH: B13 VHH with M5V, G8R, A59S, P70I, L109F, P111T
notes: as for B13

IC50 (read off the curve) [6]: ~7 nM
B15: 103F6 (VHH)
VHH: EVQLVESGGGLVQPGGSLRLSCAASGFTFSTYTMIWLRRAPGKGFEWVSTIDKDGNTNYVDSVKGRFAVSRDNTKNTLYLQMNSLKPEDTAMYYCTKHGSSARGQGTRVTVSS
notes: Nanobody against PD-L2

EC50 (read off the curve) [11]: ~10 nM
B16: 104E12 (VHH)
VHH: EVQLVESGGGLVQPGGSLRLSCAASGFTFDYYAIGWFRQAPGKAREGVSCISGGDNSTYYADSVKGRFTISRDNAKNTVYLQMNSLKPEDTAVYYCATGGWKYCSGYDPEYIYWGQGTQVTVSS

IC50 (read off the curve) [12]: ~200 ng/well
IC50 (read off the curve) [5]: ~200 nM
B17: 65B2 (VHH)
VHH: EVQLVESGGGLVQAGGSLRLSCATSGRTFSSDVMGWFRQAPGKEREFVAAINRSGHSTSYTGSVKGRFAISRDNTKNTVYLQMNSLKPEDTAVYYCALRLWSDYLAQKSGEYNYWGQGTQVTVSS
notes: Nanobody against CD28

From US20240182575A1 (Ablynx, published 2024)
